# Results published in article PMC7431522.
# T1: IL-10 receptor (IL-10R), mouse (mouse (endogenous in BMDMs and splenocytes)) (UniProt Q61727)
# T1 sequence: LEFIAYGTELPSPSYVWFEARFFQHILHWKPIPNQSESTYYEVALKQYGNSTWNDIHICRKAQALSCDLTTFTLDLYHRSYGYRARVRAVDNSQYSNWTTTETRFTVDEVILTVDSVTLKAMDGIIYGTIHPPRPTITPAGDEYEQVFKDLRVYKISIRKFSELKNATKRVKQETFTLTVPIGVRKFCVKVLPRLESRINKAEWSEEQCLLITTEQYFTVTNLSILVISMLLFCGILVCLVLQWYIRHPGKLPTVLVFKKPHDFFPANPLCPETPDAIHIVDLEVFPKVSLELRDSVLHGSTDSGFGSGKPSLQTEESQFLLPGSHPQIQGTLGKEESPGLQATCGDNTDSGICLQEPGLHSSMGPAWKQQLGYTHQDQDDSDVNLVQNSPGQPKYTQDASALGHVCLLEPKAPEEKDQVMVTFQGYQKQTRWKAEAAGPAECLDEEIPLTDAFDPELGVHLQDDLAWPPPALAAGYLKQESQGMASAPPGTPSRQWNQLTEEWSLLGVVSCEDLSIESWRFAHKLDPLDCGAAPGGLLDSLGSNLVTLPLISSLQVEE
# B1: natural mouse IL-10 (non-covalently linked) (ligand)
# chain: SRGQYSREDNNCTHFPVGQSHMLLELRTAFSQVKTFFQTKDQLDNILLTDSLMQDFKGYLGCQALSEMIQFYLVEVMPQAEKHGPEIKEHLNSLGEKLKTLRMRLRRCHRFLPCENKSKAVEQVKSDFNKLQDQGVYKAMNEFDIFINCIEAYMMIKMKS
# B2: commercial mouse IL-10 (ligand)
# chain: SRGQYSREDNNCTHFPVGQSHMLLELRTAFSQVKTFFQTKDQLDNILLTDSLMQDFKGYLGCQALSEMIQFYLVEVMPQAEKHGPEIKEHLNSLGEKLKTLRMRLRRCHRFLPCENKSKAVEQVKSDFNKLQDQGVYKAMNEFDIFINCIEAYMMIKMKS
# Legend:
# [1] = target: T1, IL-10 receptor (IL-10R), mouse (mouse (endogenous in BMDMs and splenocytes))
# [2] = target: T1, IL-10 receptor (IL-10R), mouse (mouse (endogenous in BMDMs and splenocytes)); remark: listed apart in the source
# [3] = target: T1, IL-10 receptor (IL-10R), mouse (mouse (endogenous in BMDMs and splenocytes)); remark: listed apart in the source
# [4] = target: T1, IL-10 receptor (IL-10R), mouse (mouse (endogenous in BMDMs and splenocytes)); remark: listed apart in the source
Molecule,"ED50 of biological activity, dose-response, data as AUC (Figure 5B) [1]","ED50, suppression of LPS-induced luciferase in BMDMs (Figure 2H) [2]","suppression of LPS-induced luciferase in hTNF.LucBAC BMDMs, 10 ng/mL [3]",other results
natural mouse IL-10 with RRCHR changed to AACHR (from UniProt P18893 19-178) (ligand),0.96 ng/mL,,,
natural mouse IL-10 with RRCHR changed to RACHR (from UniProt P18893 19-178) (ligand),0.28 ng/mL,,,
"stable mouse IL-10 dimer, 7 amino acid linker (-G3SG3-) (ligand)",,0.45 ng/mL,60%,"ED50, half-maximal suppression of LPS-induced luciferase in hTNF.LucBAC BMDMs (Figure 2C) [3]: 0.04 ng/mL; ED50 of biological activity, dose-response, data as AUC (Figure 5D) [1]: 0.36 ng/mL"
"stable mouse IL-10 dimer, 13 amino acid linker (-G3SG4-SG4-) (ligand)",,0.38 ng/mL,,
natural human IL-10 (non-covalently linked) (from UniProt P22301 19-178) (ligand),,,,"ED50, suppression of LPS-induced luciferase in mouse BMDMs (Figure 8A) [4]: 0.87 ng/mL"
"stable mouse IL-10 dimer, 9 amino acid linker (-G3SG4S-) (ligand)",,0.4 ng/mL,,
natural mouse IL-10 with RRCHR changed to ARCHA (from UniProt P18893 19-178) (ligand),59.3 ng/mL,,,
B1,0.1 ng/mL,1.5 ng/mL,60%,"ED50, half-maximal suppression of LPS-induced luciferase in hTNF.LucBAC BMDMs (Figure 2C) [3]: 0.17 ng/mL"
B2,,,60%,
